Laboratory results from patent US10465005B2, “JAML specific binding agents, antibodies, and uses related thereto” (Emory University, priority 2011, dated 2019).

T1: CHO-JAML-His and CHO JAML-6xMyc (Homo sapiens, UniProt Q86YT9)
T1 construct: 6xMyc (cell line CHO JAML-6xMyc); expressed in transfected cells
T1 sequence (Q86YT9 20-394): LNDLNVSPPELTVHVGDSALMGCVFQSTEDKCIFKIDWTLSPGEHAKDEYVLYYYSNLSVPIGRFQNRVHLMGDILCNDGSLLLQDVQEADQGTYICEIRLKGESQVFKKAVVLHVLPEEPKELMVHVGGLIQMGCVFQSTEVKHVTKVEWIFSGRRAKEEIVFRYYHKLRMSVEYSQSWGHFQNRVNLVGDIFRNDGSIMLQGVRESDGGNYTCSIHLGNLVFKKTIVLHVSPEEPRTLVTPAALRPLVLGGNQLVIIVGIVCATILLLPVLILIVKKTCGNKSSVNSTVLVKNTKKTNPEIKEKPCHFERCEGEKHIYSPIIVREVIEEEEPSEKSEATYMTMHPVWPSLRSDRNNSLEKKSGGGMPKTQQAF

T2: epithelial CAR on T84 monolayers (Homo sapiens, UniProt P78310)
T2 construct: endogenous in cells; host or cells: T84
T2 sequence (P78310 20-365): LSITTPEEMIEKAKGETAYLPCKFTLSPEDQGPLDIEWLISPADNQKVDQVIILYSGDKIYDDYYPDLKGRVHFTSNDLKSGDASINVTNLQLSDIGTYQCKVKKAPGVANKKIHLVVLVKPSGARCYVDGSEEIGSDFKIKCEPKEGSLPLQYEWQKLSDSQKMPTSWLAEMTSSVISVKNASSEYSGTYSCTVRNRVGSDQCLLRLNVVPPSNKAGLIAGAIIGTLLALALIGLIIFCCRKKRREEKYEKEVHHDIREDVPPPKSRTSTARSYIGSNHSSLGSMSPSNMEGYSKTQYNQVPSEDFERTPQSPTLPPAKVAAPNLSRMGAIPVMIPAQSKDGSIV


Experiments:
[1] = molecular target: T1, CHO-JAML-His and CHO JAML-6xMyc; assay: FACS staining of stably transfected CHO-JAML cell lines; format: binding; conditions: FIG. 1A
From the text: BALB/c mice were immunized with recombinant soluble fragment of JAML.D1D2 tagged with 10 His residues at the C-terminus (sJAML-His), generated in H293T cells and purified by Nickel chromatography. After the 4th boost, mice were given a final immunization and, 3 days later, spleen cells harvested and fused to the myeloma cell line P3U1. Hybridomas were selected in HAT medium and supernatants of clones were subjected to screening first to immobilized, soluble JAML and followed by staining of CHO-JAML stable transfectants. Three hybridomas were selected and antibodies were purified from ascites. FACS staining profiles of mAbs using two different, stably transfected CHO-JAML cell lines, CHO-JAML-His and CHO JAML-6xMyc, both membrane bound and tagged at the C-terminus with either 10-His or 6xMyc. Control antibody is 9E10 anti Myc.
These hybridomas were further tested for reactivity against tagged, full-length JAML expressed on the surface of cultured cells. CHO-JAML-6XMyc transfectants were aliquoted and pelleted into round bottom 96 well plates. 100 μl hybridoma supernatants were added for 1 hr at 4° C. Cells were washed and positive wells were identified by FACS analysis using Goat anti Mouse-AlexaFluor 488. Cells from positive wells were cloned by limiting dilution at one cell per well and expanded first in DMEM-10% FBS containing HAT then in medium containing HT (ATCC) and later DMEM, 10% FBS. The cloned cells of interest were sent to Harlan Laboratories (Indianapolis, Ind.) for production of ascites. Antibodies were purified from ascitic fluid using proteinA-Sepharose (GE Healthcare) followed by dialysis against PBS. Aliquots were frozen at −80° C. Ig subclass of each antibody was determined by using the IsoStrip Mouse Monoclonal Antibody Isotyping Kit (Roche Applied Science). […]
Cells suspensions of adherent cells were prepared by trypsinization with Trypsin-EDTA (Sigma). […] After final washes, cells were analyzed using FACS Calibur. […] All samples were stained for JAML (DW100 mAb) and CD11b/CD18 (CBRM 1/29), and only CD11b/CD18 positive cells (PMNs) were analyzed for JAML expression.

[2] = molecular target: T2, epithelial CAR on T84 monolayers; assay: Soluble JAML binding to epithelial CAR, immunofluorescence; format: cell-based; conditions: sJAML 20 μg/ml, 1 h at 37° C. after 20 min Ca2+ free buffer; FIG. 7D
Protocol: FIG. 7D. T84 monolayers were subjected to transient calcium depletion by preincubation in Ca^2+ free buffer (PBS) for 20 min to increase access to tight junctions, were incubated with sJAML (20 μg/ml) for 1 h at 37° C. […] The scale bar is 20 μm.
As it has been established that epithelial CAR is the ligand for JAML on PMN. Whether shed JAML, as well as the recombinant protein could bind to CAR was investigated. To do this, CHO cells stably expressing CAR protein (CHO-CAR) were incubated with either supernatants from PMA activated differentiated PLB-985 (that release high levels of soluble JAML upon activation, (FIG. 2)), or recombinant soluble JAML and stained with DW216 to detect bound JAML. […] The same observation was verified by IF (FIG. 7B). […] The calcium depletion disrupts intercellular junctions of the epithelium and allows for better penetration of soluble JAML.

Row | JAML labeling versus CAR staining on T84 monolayers [2] | Molecule | FACS staining of CHO-JAML transfectant lines [1]
1 | – | DW100: monoclonal anti-human JAML antibody (IgG1,κ), hybridoma ATCC PTA-13051; VH SEQ ID NO:19, VL SEQ ID NO:22 (antibody, V domains shown) VH: DVQLVESGAELVRPGASKLSCKALAYTFTDYEMHWVKQTPVHGLEWIGIIHPGSGGTVYNQKFKGKATLTADKSSSTAYMELSSLTSEDSTVYYCTRRRYYGSSYNWYFDVWGAGN VL: VLTQSPASLAASVGETVTITCRASENIYYSLAWYQQKQGKSPQLLIYNANSLEDGVPSRFSGSGSGTQYSLKINSMQPEDTATYFCEQTYDVPLTFGAGTKLEL | stained both transfectant lines equally well
2 | highly colocalizes with staining of CAR | sJAML: recombinant soluble fragment of JAML.D1D2 tagged with 10 His residues at the C-terminus (protein) LNDLNVSPPELTVHVGDSALMGCVFQSTEDKCIFKIDWTLSPGEHAKDEYVLYYYSNLSVPIGRFQNRVHLMGDILCNDGSLLLQDVQEADQGTYICEIRLKGESQVFKKAVVLHVLPEEPKELMVHVGGLIQMGCVFQSTEVKHVTKVEWIFSGRRAKEEIVFRYYHKLRMSVEYSQSWGHFQNRVNLVGDIFRNDGSIMLQGVRESDGGNYTCSIHLGNLVFKKTIVLHVSPEEPRTL | –
